Laboratory results published in patent US8153134.

Target: human MDL-1 (human) (UniProt Q9NY25)
Assay: cell-based or functional assay

Chain of human MDL-1 (human) (Q9NY25 whole entry): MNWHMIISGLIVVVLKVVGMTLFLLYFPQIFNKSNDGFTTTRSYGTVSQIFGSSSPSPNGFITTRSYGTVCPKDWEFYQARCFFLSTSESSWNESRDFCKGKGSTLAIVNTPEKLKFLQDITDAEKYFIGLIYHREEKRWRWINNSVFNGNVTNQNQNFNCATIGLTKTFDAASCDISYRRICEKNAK

Substance: rat isotype control mAb (rIgG1) (antibody)
- secreted beta-hexosaminidase, OD (405-570), DT808 mouse mast cells, cross-link: 0.065 OD (405-570)
- secreted beta-hexosaminidase, OD (405-570), DT808 mouse mast cells, no cross-link: 0.1 OD (405-570)
